These results are taken from paper PMC6447540.

The target in the assay is SAV1 (UniProt Q9H4B6). Description: biotin-peptide pull-down from cell lysate. Particulars: reference: unphosphorylated Akt1 peptide; sites Y26.

Consider “Akt1 PH domain peptide (from UniProt P31749) pY26 Akt1 peptide”, for which the “binding against the reference” value is listed as “weaker”.
